The source of these data is publication PMC6738654, “BZU2/ZmMUTE controls symmetrical division of guard mother cell and specifies neighbor cell fate in maize”.

This data set has as its target T1, BZU2/ZmMUTE-ΔC (Zea mays, UniProt K7V1X7 1-189).
T1 sequence: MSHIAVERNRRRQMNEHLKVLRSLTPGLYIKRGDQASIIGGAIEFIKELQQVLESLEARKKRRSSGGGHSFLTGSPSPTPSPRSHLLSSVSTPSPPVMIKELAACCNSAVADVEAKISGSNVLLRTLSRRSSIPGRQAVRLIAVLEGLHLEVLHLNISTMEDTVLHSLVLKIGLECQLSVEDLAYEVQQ
As to the kind of experiment: EMSA; cold probe competitor 2-, 5-, 10-fold; LightShift Chemiluminescent EMSA Kit (Thermo) per manufacturer; buffer, salt, pH and temperature not stated. The conditions noted are these: protein: recombinant; chain copies: 2; label: 5' biotin (cold probe unlabeled); blunt.

B1: P1 (PAN1 promoter E-box -27) (dsDNA)
DNA 1: GAATGAGGGGCACCTGGAGAGCACAT
DNA 2: ATGTGCTCTCCAGGTGCCCCTCATTC
For B1, the binding result is “binds”.

B2: P2 (PAN2 promoter E-boxes -187, -200) (dsDNA)
DNA 1: CAGCCACAACAGGTGTCCCTTTCAAGTGATCTCTGCA
DNA 2: TGCAGAGATCACTTGAAAGGGACACCTGTTGTGGCTG
As to B2, the binding result is “binds”.
